Laboratory results from publication PMC3378601.

Key:
[1] = target: NM, the prion domain (N and M domains) of the yeast translation termination factor Sup35, untagged (yeast) (UniProt P05453)
[2] = target: NM, the prion domain (N and M domains) of the yeast translation termination factor Sup35, untagged (yeast) (UniProt P05453); remark: listed apart in the source
[3] = target: NM, the prion domain (N and M domains) of the yeast translation termination factor Sup35, untagged (yeast) (UniProt P05453); remark: listed apart in the source

Chain of NM, the prion domain (N and M domains) of the yeast translation termination factor Sup35, untagged (yeast) (P05453 1-253): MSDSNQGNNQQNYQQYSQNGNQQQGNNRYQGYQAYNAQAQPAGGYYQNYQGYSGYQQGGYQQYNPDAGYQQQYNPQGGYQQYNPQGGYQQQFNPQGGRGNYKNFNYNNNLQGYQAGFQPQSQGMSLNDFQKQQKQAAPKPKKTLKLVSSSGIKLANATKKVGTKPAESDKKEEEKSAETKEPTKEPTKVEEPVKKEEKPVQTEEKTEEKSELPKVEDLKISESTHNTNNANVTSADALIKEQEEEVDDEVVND

Substance: Hsp26, yeast small heat shock protein (from UniProt P15992 1-214) (natural protein)
- pyrene excimer fluorescence of fibers of single cysteine NM mutants after 60 min with Hsp26 (10 µM); reduction at N-terminal positions 2 and 7 (slightly reduced in Head 21-38 and Tail 86-106) [1]: 2 fold
- inhibition of seeded NM fibrillization by Hsp26 pretreated at 45°C for 10 min, ThT fluorescence; IC50 [2]: > 24 µM
- inhibition of NM (5 µM) fibrillization seeded by preformed NM fibers (5% wt/wt), 12 h at 25°C, ThT fluorescence; IC50 of Hsp26 [3]: 1.9 µM
